{
  "source": "patent US20220251207A1",
  "target": "human hCTLA4-RFP protein on 293 cells (human) (UniProt P16410)",
  "sequence (P16410 36-223)": "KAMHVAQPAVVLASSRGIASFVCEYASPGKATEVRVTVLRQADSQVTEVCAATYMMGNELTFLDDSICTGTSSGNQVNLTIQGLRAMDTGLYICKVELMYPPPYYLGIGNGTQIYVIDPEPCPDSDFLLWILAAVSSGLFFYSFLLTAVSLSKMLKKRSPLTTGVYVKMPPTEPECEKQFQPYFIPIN",
  "experiment": "flow cytometry of cell conjugates; 293-hCTLA4-RFP cells with 100 nM antibody, then five times as many 293-B7-1-GFP cells (B7-1 is the ligand tested for blocking); lower right quadrant (RFP+GFP-) 6.13",
  "data": [
    {"substance": "hIgG1 (antibody)", "values": [
      {"measurement": "% RFP+GFP+ events (upper right quadrant)", "value": 26.5, "unit": "%"}
    ]}
  ]
}
